Measurements as given in US10877024B2, “Methods of determining interferon having direct inhibitory effects on tumors and uses thereof” (SUPERLAB FAR EAST LIMITED, priority 2015, dated 2020).

Legend:
[1] = system: beta-catenin/TCF mediated transcriptional activity; assay: Beta-catenin/TCF transcription reporter assay (TOPFlash); format: cell-based, human; conditions: 10 mcg/ml, 24 hours
Method: The effect of rSIFN-co on Wnt/Beta-catenin signaling in vitro was determined. Cancer cells were plated in 96-well plates (at 1×10^4 cells per well), and incubated for 12 hours, after which they were transiently transfected with 100 ng TOPFlash (Millipore Corporation, Billerica, Mass., USA). […] After interferon treatment for 24 hours, luciferase assay was performed using the Dual Luciferase Assay System kit according to the manufacturer's protocols (Cat #:E1960, Promega). Relative luciferase activity was reported as a ratio of firefly/renilla luciferase activity. Experiments were performed in triplicate.

[2] = system: Human Cervical Cancer Hela Xenografts; assay: rSIFN-co on human cervical cancer Hela xenografts in nude mice; format: in vivo; conditions: for TV(mm^3, mean ± SD) (D 0): day 0; for % Inhibition / T/C (%) / TV(mm^3, mean ± SD) (D 28): day 28
Method: Then 1.5 mm^3 fragments were prepared for s.c. implantation into the animals.

[3] = system: Human Colon Cancer HT-29 Xenografts; assay: rSIFN-co on human colon cancer HT-29 xenografts in nude mice; format: in vivo; conditions: for TV(mm^3, mean ± SD) (D 0): day 0; for % Inhibition / T/C (%) / TV(mm^3, mean ± SD) (D 28): day 28
CD24 = assay: qPCR of Wnt signaling downstream gene in A549 cells; format: cell-based, human; conditions: 10 μg/ml, 24 hr
Method: (§1) After 24 hr of treatment, cellular total mRNA was isolated using TRIZOL Reagent and cDNA was synthesized and further subjected to qPCR, using specific primers of four (4) Wnt signaling downstream genes, Axin2, CD24, Survivin and ID2. Experiments were conducted in triplicate and normalized with the Mock group.
(§2) Total mRNA was isolated using TRIZOL Reagent (Invitrogen, Carlsbad, Calif.) according to the manufacturer's instructions. Complementary DNA (cDNA) was synthesized using a RT-PCR Kit (Cat #:FSQ-101, TOYOBO, Japan) according to the manufacturer's instructions and then subjected to qPCR with a SYBR Green PCR kit (Cat #: QPK-201, TOYOBO, Japan). The primers of the four Wnt pathway target genes were as follows: Axin2 sense primer: 5′-[…]-3′ (SEQ ID NO:8) and antisense primer: 5′-[…]-3′(SEQ ID NO: 9); CD24 sense primer: 5′-[…]-3′ (SEQ ID NO: 10) and antisense primer: 5′-[…]-3′(SEQ ID NO: 11); Survivin sense primer: 5′-[…]-3′ (SEQ ID NO: 12) and antisense primer: 5′-[…]-3′ (SEQ ID NO: 13) and ID2 sense primer: 5′-[…]-3′ (SEQ ID NO: 14) and antisense primer: 5′-[…]-3′(SEQ ID NO: 15).
(§3) The amplification protocol consisted of incubations at 95° C. for 1 minute, 40 cycles (95° C. for 15 seconds, 60° C. for 15 seconds, 72° C. for 30 seconds). Incorporation of the SYBR Green dye into PCR products was monitored in real time with a Bio-Rad Detection System and subsequently analyzed using Bio-Rad CFX manager 2.1 software. The samples were pooled for each condition and run in duplicate. Treated samples were compared to Mock using the 2^−ΔΔCt method and plotted as fold change. GAPDH was used as the normalization control.

Axin2 = assay: as above; format: cell-based, human; conditions: 10 μg/ml, 24 hr
Method: as §1, §2, §3

ID2 = assay: as above; format: cell-based, human; conditions: 10 μg/ml, 24 hr
Method: as §1, §2, §3

Survivin = assay: as above; format: cell-based, human; conditions: 10 μg/ml, 24 hr
Method: as §1, §2, §3

FZD6 = assay: qPCR of Wnt-related receptor mRNA; format: cell-based, human; conditions: 10 μg/ml, 24 hr
Method: The regulation of LRP6/FZD6 by rSIFN-co was investigated. This was conducted by qPCR as performed in Example 9. […] After 24 hr of treatment, total cellular mRNA was isolated using TRIZOL Reagent, and cDNA was subjected to qPCR using specific primers of LRP6 and FZD6. The primers used were: LRP6 sense primer: 5′-[…]-3′ (SEQ ID NO: 4) and antisense primer: 5′-[…]-3′ (SEQ ID NO: 5), and FZD6 sense primer: 5′-[…]-3′ (SEQ ID NO: 6) and antisense primer: 5′-[…]-3′ (SEQ ID NO: 7). Experiments were conducted in triplicate and normalized with the Mock control group. Results were recorded as relative mRNA level of either LRP6 or FZD6 relative to GAPDH.

[4] = system: human hepatoma SMMC-7721 xenografts; assay: rSIFN-co on human hepatoma SMMC-7721 xenografts in nude mice; conditions: for TV(mm^3, mean ± SD) (D 0): day 0; for % Inhibition / T/C (%) / TV(mm^3, mean ± SD) (D 21): day 21
Method: The test article was used without dilution. It was stored at 4° C. until thawed for injection.
The animals used were 4-6 weeks old male BALB/cA nu/nu mice, weighing about 23±2 g, obtained from the Shanghai Institute of Materia Medica (Shanghai, P.R. China). […] Animals were housed 6 to a cage. They were ear-marked with ear hole punch identification. The room temperature was maintained at 25° C.±+1° C. Lighting was set at 12 hr on and 12 hr off. Food was provided ad libitum. City tap water, filtered with a 5 micrometer (μm) filter, was provided to the animals ad libitum via water bottles.
The test article was administered in a volume of 0.05 ml-0.15 ml per mouse per treatment, depending on the group to which the animal was assigned. […] Normal saline was injected in a volume of 0.15 ml per mouse, which was used as vehicle control.
Animals were assigned to treatment groups randomly. Initially, all animals were placed in one large animal cage. For assignment to the study, they were later separately housed, with 6 animals per cage per treatment group. Groups 1 and 2 are Control groups in which the animals were each administered the vehicle every other day after the first treatment. […] Tumor growth was monitored by measuring the length and width of each tumor twice a week during the course of the study. Each animal was also weighed twice a week during the course of the study.
Before commencement of this study, the xenografts were passaged twice in nude mice. Under sterile conditions, well-grown tumors were cut into 1.5 mm^3 fragments and one such fragment was injected by trocar needle into the right flank of each study animal. […] Individual tumor size (length and width) was measured twice per week with microcalipers. Tumor volume (V) was calculated using the formula: V=(length×width^2)/2. Individual relative tumor volume (RTV) was calculated using the formula: RTV=Vt/V0, where Vt is the tumor volume on the day of measurement and V0 is the tumor volume on the day of first treatment. Therapeutic effect of the test article or control article was expressed in terms of T/C (%), using the formula: T/C (%)=(mean RTV of the treated group/mean RTV of the control group)×100%; and in terms of % Inhibition, using the formula: % Inhibition=100%−T/C %.

[5] = 0.05 mg/mouse i.t. every other day
[6] = 0.10 mg/mouse i.t. every other day
[7] = 0.15 mg/mouse i.t. every other day
[8] = 0.05-0.15 mg/mouse i.t. every other day, 28 days

B1: rSIFN-co: Recombinant super-compound interferon; amino acid sequence SEQ ID NO: 1 (same as INFERGEN), encoded by novel nucleotide sequence SEQ ID NO: 2 (protein)
chain: MCDLPQTHSLGNRRALILLAQMRRISPFSCLKDRHDFGFPQEEFDGNQFQKAQAISVLHEMIQQTFNLFSTKDSSAAWDESLLEKFYTELYQQLNDLEACVIQEVGVEETPLMNVDSILAVKKYFQRITLYLTEKKYSPCAWEVVRAEIMRSFSLSTNLQERLRRKE
modifications: Amino acid sequence of recombinant interferon
[1]; A549 cells, Control about 310
  Firefly/Renilla ratio: about 100
[1]; H460 cells, Control about 450
  Firefly/Renilla ratio: about 280
[1]; H1299 cells, Control about 800
  Firefly/Renilla ratio: about 500
[1]; HT-29 cells, Control about 300
  Firefly/Renilla ratio: about 200
[1]; SW620 cells, Control about 1500
  Firefly/Renilla ratio: less than 100
[2]; [5]
  TV(mm^3, mean ± SD) (D 0): 135 ± 26 mm^3
  % Inhibition: 46.67%
  T/C (%): 53.33%
  TV(mm^3, mean ± SD) (D 28): 886 ± 232 mm^3
[2]; [6]
  TV(mm^3, mean ± SD) (D 0): 135 ± 28 mm^3
  % Inhibition: 46.67%
  T/C (%): 53.33%
  TV(mm^3, mean ± SD) (D 28): 865 ± 186 mm^3
[2]; [7]
  TV(mm^3, mean ± SD) (D 0): 136 ± 25 mm^3
  % Inhibition: 40.40%
  T/C (%): 59.60%
  TV(mm^3, mean ± SD) (D 28): 1025 ± 400 mm^3
[2]; [8]
  tolerability, signs of toxicity: tolerated the rSIFN-co treatments with no signs of toxicity
[2]; 28-day treatment period
  change in average body weight: Very little change in average body weight
[3]; [5]
  TV(mm^3, mean ± SD) (D 0): 130 ± 26 mm^3
  % Inhibition: 61%
  T/C (%): 39%
  TV(mm^3, mean ± SD) (D 28): 416 ± 166 mm^3
[3]; [6]
  TV(mm^3, mean ± SD) (D 0): 128 ± 39 mm^3
  % Inhibition: 49.82%
  T/C (%): 50.18%
  TV(mm^3, mean ± SD) (D 28): 541 ± 196 mm^3
[3]; [7]
  TV(mm^3, mean ± SD) (D 0): 131 ± 36 mm^3
  % Inhibition: 46.37%
  T/C (%): 53.63%
  TV(mm^3, mean ± SD) (D 28): 570 ± 144 mm^3
[3]; [8]
  tolerability, signs of drug toxicity, changes in weight: tolerated the tested dosages and showed no signs of drug toxicity and minimal changes in weight
CD24
  relative expression level of CD24 mRNA (Mock control set at 1): about 0.4
Axin2
  relative expression level of Axin2 mRNA (Mock control set at 1): about 0.4
ID2
  relative expression level of ID2 mRNA (Mock control set at 1): about 0.4
Survivin
  relative expression level of Survivin mRNA (Mock control set at 1): about 0.4
FZD6; A549 cells
  relative expression of FZD6 mRNA: significant reduction
FZD6; H460 cells
  relative expression of FZD6 mRNA: significant reduction
FZD6; HT-29 cells
  relative expression of FZD6 mRNA: significant reduction
FZD6; SW620 cells
  relative expression of FZD6 mRNA: significant reduction
[4]; [5]
  TV(mm^3, mean ± SD) (D 0): 124 ± 26 mm^3
  % Inhibition: 48.01%
  T/C (%): 51.99%
  TV(mm^3, mean ± SD) (D 21): 592 ± 139 mm^3
[4]; [6]
  TV(mm^3, mean ± SD) (D 0): 124 ± 15 mm^3
  % Inhibition: 52.20%
  T/C (%): 47.80%
  TV(mm^3, mean ± SD) (D 21): 573 ± 287 mm^3
[4]; [7]
  TV(mm^3, mean ± SD) (D 0): 123 ± 20 mm^3
  % Inhibition: 56.80%
  T/C (%): 43.20%
  TV(mm^3, mean ± SD) (D 21): 505 ± 226 mm^3
